Results reported in IntAct's records for PubMed 29039417.

B1: BBSome complex member BBS4 (Homo sapiens), Q96RK4 (parent)
chain: MAEERVATRTQFPVSTESQKPRQKKAPEFPILEKQNWLIHLHYIRKDYEACKAVIKEQLQETQGLCEYAIYVQALIFRLEGNIQESLELFQTCAVLSPQSADNLKQVARSLFLLGKHKAAIEVYNEAAKLNQKDWEISHNLGVCYIYLKQFNKAQDQLHNALNLNRHDLTYIMLGKIHLLEGDLDKAIEVYKKAVEFSPENTELLTTLGLLYLQLGIYQKAFEHLGNALTYDPTNYKAILAAGSMMQTHGDFDVALTKYRVVACAVPESPPLWNNIGMCFFGKKKYVAAISCLKRANYLAPFDWKILYNLGLVHLTMQQYASAFHFLSAAINFQPKMGELYMLLAVALTNLEDIENAKRAYAEAVHLDKCNPLVNLNYAVLLYNQGEKKNALAQYQEMEKKVSLLKDNSSLEFDSEMVEMAQKLGAALQVGEALVWTKPVKDPKSKHQTTSTSKPASFQQPLGSNQALGQAMSSAAAYRTLPSGAGGTSQFTKPPSLPLEPEPAVESSPTETSEQIREK
partner: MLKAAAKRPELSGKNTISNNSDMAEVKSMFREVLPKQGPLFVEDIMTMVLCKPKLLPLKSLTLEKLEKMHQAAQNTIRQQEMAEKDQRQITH

Variants of: B1
Details: with bbip1_human BBIP1, A8MTZ0

effect of a mutation on the interaction	Variant
disrupting interaction strength	MAEERVATRTQFPVSTESQKPRQKKAPEFPILEKQNWLIHLHYIRKDYEACKAVIKEQLQETQGLCEYAIYVQALIFRLEGNIQESLELFQTCAVLSPQSADNLKQVARSLFLLGKHKAAIEVYNEAAKLNQKDWEISHNLGVCYIYLKQFNKAQDQLHNALNLNRHDLTYIMLGKIHLLEGDLDKAIEVYKKAVEFSPENTELLTTLGLLYLQLGIYQKAFEHLGNALTYDPTNYKAILAAGSMMQTHGDFDVALTKYRVVACAVPESPPLWNNIGMCFFGKKKYVAAISCLKRANYLAPFDWKILYNLGLVHLTMQQYASAFHFLSAAINFQPKMGELYMLLAVALTNLEDIENAKRAYAEAVHLDKCNPLVNLNYVVLLYNQGEKKNALAQYQEMEKKVSLLKDNSSLEFDSEMVEMAQKLGAALQVGEALVWTKPVKDPKSKHQTTSTSKPASFQQPLGSNQALGQAMSSAAAYRTLPSGAGGTSQFTKPPSLPLEPEPAVESSPTETSEQIREK [A379V]
with no effect	MAEERVATRTQFPVSTESQKPRQKKAPEFPILEKQNWLIHLHYIRKDYEACKAVIKEQLQETQGLCEYAIYVQALIFRLEGNIQESLELFQTCAVLSPQSADNLKQVARSLFLLGKHKAAIEVYNEAAKLNQKDWEISHNLGVCYIYLKQFNKAQDQLHNALNLNRHDLTYIMLGKIHLLEGDLDKAIEVYKKAVEFSPENTELLTTLGLLYLQLGIYQKAFEHLGNALTYDPTNYKAILAAGSMMQTHGDFDVALTKYRVVACAVPESPPLWNNIGMCFFGKKKYVAAISCLKRANYLAPFDWKILYNLGLVHLTMQQYASAFHFLSAAINFQPKMGELYMLLAVALTNLEDIENAKRAYAEAVHLDKCNPLVNLNYKVLLYNQGEKKNALAQYQEMEKKVSLLKDNSSLEFDSEMVEMAQKLGAALQVGEALVWTKPVKDPKSKHQTTSTSKPASFQQPLGSNQALGQAMSSAAAYRTLPSGAGGTSQFTKPPSLPLEPEPAVESSPTETSEQIREK [A379K]
with no effect	MAEERVATRTQFPVSTESQKPRQKKAPEFPILEKQNWLIHLHYIRKDYEACKAVIKEQLQETQGLCEYAIYVQALIFRLEGNIQESLELFQTCAVLSPQSADNLKQVARSLFLLGKHKAAIEVYNEAAKLNQKDWEISHNLGVCYIYLKQFNKAQDQLHNALNLNRHDLTYIMLGKIHLLEGDLDKAIEVYKKAVEFSPENTELLTTLGLLYLQLGIYQKAFEHLGNALTYDPTNYKAILAAGSMMQTHGDFDVALTKYRVVACAVPESPPLWNNIGMCFFGKKKYVAAISCLKRANYLAPFDWKILYNLGLVHLTMQQYASAFHFLSAAINFQPKMGELYMLLAVALTNLEDIENAKRAYAEAVHLDKCNPLVNLNYEVLLYNQGEKKNALAQYQEMEKKVSLLKDNSSLEFDSEMVEMAQKLGAALQVGEALVWTKPVKDPKSKHQTTSTSKPASFQQPLGSNQALGQAMSSAAAYRTLPSGAGGTSQFTKPPSLPLEPEPAVESSPTETSEQIREK [A379E]
disrupting interaction strength	MAEERVATRTQFPVSTESQKPRQKKAPEFPILEKQNWLIHLHYIRKDYEACKAVIKEQLQETQGLCEYAIYVQALIFRLEGNIQESLELFQTCAVLSPQSADNLKQVARSLFLLGKHKAAIEVYNEAAKLNQKDWEISHNLGVCYIYLKQFNKAQDQLHNALNLNRHDLTYIMLGKIHLLEGDLDKAIEVYKKAVEFSPENTELLTTLGLLYLQLGIYQKAFEHLGNALTYDPTNYKAILAAGSMMQTHGDFDVALTKYRVVACAVPESPPLWNNIGMCFFGKKKYVAAISCLKRANYLAPFDWKILYNLGLVHLTMQQYASAFHFLSAAINFQPKMGELYMLLAVALTNLEDIENAKRAYAEAVHLDKCNPLVNLNYAALLYNQGEKKNALAQYQEMEKKVSLLKDNSSLEFDSEMVEMAQKLGAALQVGEALVWTKPVKDPKSKHQTTSTSKPASFQQPLGSNQALGQAMSSAAAYRTLPSGAGGTSQFTKPPSLPLEPEPAVESSPTETSEQIREK [V380A]
with no effect	MAEERVATRTQFPVSTESQKPRQKKAPEFPILEKQNWLIHLHYIRKDYEACKAVIKEQLQETQGLCEYAIYVQALIFRLEGNIQESLELFQTCAVLSPQSADNLKQVARSLFLLGKHKAAIEVYNEAAKLNQKDWEISHNLGVCYIYLKQFNKAQDQLHNALNLNRHDLTYIMLGKIHLLEGDLDKAIEVYKKAVEFSPENTELLTTLGLLYLQLGIYQKAFEHLGNALTYDPTNYKAILAAGSMMQTHGDFDVALTKYRVVACAVPESPPLWNNIGMCFFGKKKYVAAISCLKRANYLAPFDWKILYNLGLVHLTMQQYASAFHFLSAAINFQPKMGELYMLLAVALTNLEDIENAKRAYAEAVHLDKCNPLVNLNKAVLLYNQGEKKNALAQYQEMEKKVSLLKDNSSLEFDSEMVEMAQKLGAALQVGEALVWTKPVKDPKSKHQTTSTSKPASFQQPLGSNQALGQAMSSAAAYRTLPSGAGGTSQFTKPPSLPLEPEPAVESSPTETSEQIREK [Y378K]

More lines, now with the values behind:

Variant	effect of a mutation on the interaction
MAEERVATRTQFPVSTESQKPRQKKAPEFPILEKQNWLIHLHYIRKDYEACKAVIKEQLQETQGLCEYAIYVQALIFRLEGNIQESLELFQTCAVLSPQSADNLKQVARSLFLLGKHKAAIEVYNEAAKLNQKDWEISHNLGVCYIYLKQFNKAQDQLHNALNLNRHDLTYIMLGKIHLLEGDLDKAIEVYKKAVEFSPENTELLTTLGLLYLQLGIYQKAFEHLGNALTYDPTNYKAILAAGSMMQTHGDFDVALTKYRVVACAVPESPPLWNNIGMCFFGKKKYVAAISCLKRANYLAPFDWKILYNLGLVHLTMQQYASAFHFLSAAINFQPKMGELYMLLAVALTNLEDIENAKRAYAEAVHLDKCNPLVNLNEAVLLYNQGEKKNALAQYQEMEKKVSLLKDNSSLEFDSEMVEMAQKLGAALQVGEALVWTKPVKDPKSKHQTTSTSKPASFQQPLGSNQALGQAMSSAAAYRTLPSGAGGTSQFTKPPSLPLEPEPAVESSPTETSEQIREK [Y378E]	with no effect
MAEERVATRTQFPVSTESQKPRQKKAPEFPILEKQNWLIHLHYIRKDYEACKAVIKEQLQETQGLCEYAIYVQALIFRLEGNIQESLELFQTCAVLSPQSADNLKQVARSLFLLGKHKAAIEVYNEAAKLNQKDWEISHNLGVCYIYLKQFNKAQDQLHNALNLNRHDLTYIMLGKIHLLEGDLDKAIEVYKKAVEFSPENTELLTTLGLLYLQLGIYQKAFEHLGNALTYDPTNYKAILAAGSMMQTHGDFDVALTKYRVVACAVPESPPLWNNIGMCFFGKKKYVAAISCLKRANYLAPFDWKILYNLGLVHLTMQQYASAFHFLSAAINFQPKMGELYMLLAVALTNLEDIENAKRAYAEAVHLDKCNPLVNLNAAVLLYNQGEKKNALAQYQEMEKKVSLLKDNSSLEFDSEMVEMAQKLGAALQVGEALVWTKPVKDPKSKHQTTSTSKPASFQQPLGSNQALGQAMSSAAAYRTLPSGAGGTSQFTKPPSLPLEPEPAVESSPTETSEQIREK [Y378A]	with no effect
MAEERVATRTQFPVSTESQKPRQKKAPEFPILEKQNWLIHLHYIRKDYEACKAVIKEQLQETQGLCEYAIYVQALIFRLEGNIQESLELFQTCAVLSPQSADNLKQVARSLFLLGKHKAAIEVYNEAAKLNQKDWEISHNLGVCYIYLKQFNKAQDQLHNALNLNRHDLTYIMLGKIHLLEGDLDKAIEVYKKAVEFSPENTELLTTLGLLYLQLGIYQKAFEHLGNALTYDPTNYKAILAAGSMMQTHGDFDVALTKYRVVACAVPESPPLWNNIGMCFFGKKKYVAAISCLKRANYLAPFDWKILYNLGLVHLTMQQYASAFHFLSAAINFQPKMGELYMLLAVALTNLEDIENAKRAYAEAVHLDKCNPLVNLRYAVLLYNQGEKKNALAQYQEMEKKVSLLKDNSSLEFDSEMVEMAQKLGAALQVGEALVWTKPVKDPKSKHQTTSTSKPASFQQPLGSNQALGQAMSSAAAYRTLPSGAGGTSQFTKPPSLPLEPEPAVESSPTETSEQIREK [N377R]	disrupting interaction strength
MAEERVATRTQFPVSTESQKPRQKKAPEFPILEKQNWLIHLHYIRKDYEACKAVIKEQLQETQGLCEYAIYVQALIFRLEGNIQESLELFQTCAVLSPQSADNLKQVARSLFLLGKHKAAIEVYNEAAKLNQKDWEISHNLGVCYIYLKQFNKAQDQLHNALNLNRHDLTYIMLGKIHLLEGDLDKAIEVYKKAVEFSPENTELLTTLGLLYLQLGIYQKAFEHLGNALTYDPTNYKAILAAGSMMQTHGDFDVALTKYRVVACAVPESPPLWNNIGMCFFGKKKYVAAISCLKRANYLAPFDWKILYNLGLVHLTMQQYASAFHFLSAAINFQPKMGELYMLLAVALTNLEDIENAKRAYAEAVHLDKCNPLVNLSYAVLLYNQGEKKNALAQYQEMEKKVSLLKDNSSLEFDSEMVEMAQKLGAALQVGEALVWTKPVKDPKSKHQTTSTSKPASFQQPLGSNQALGQAMSSAAAYRTLPSGAGGTSQFTKPPSLPLEPEPAVESSPTETSEQIREK [N377S]	disrupting interaction strength
MAEERVATRTQFPVSTESQKPRQKKAPEFPILEKQNWLIHLHYIRKDYEACKAVIKEQLQETQGLCEYAIYVQALIFRLEGNIQESLELFQTCAVLSPQSADNLKQVARSLFLLGKHKAAIEVYNEAAKLNQKDWEISHNLGVCYIYLKQFNKAQDQLHNALNLNRHDLTYIMLGKIHLLEGDLDKAIEVYKKAVEFSPENTELLTTLGLLYLQLGIYQKAFEHLGNALTYDPTNYKAILAAGSMMQTHGDFDVALTKYRVVACAVPESPPLWNNIGMCFFGKKKYVAAISCLKRANYLAPFDWKILYNLGLVHLTMQQYASAFHFLSAAINFQPKMGELYMLLAVALTNLEDIENAKRAYAEAVHLDKCNPLVNLIYAVLLYNQGEKKNALAQYQEMEKKVSLLKDNSSLEFDSEMVEMAQKLGAALQVGEALVWTKPVKDPKSKHQTTSTSKPASFQQPLGSNQALGQAMSSAAAYRTLPSGAGGTSQFTKPPSLPLEPEPAVESSPTETSEQIREK [N377I]	disrupting interaction strength
MAEERVATRTQFPVSTESQKPRQKKAPEFPILEKQNWLIHLHYIRKDYEACKAVIKEQLQETQGLCEYAIYVQALIFRLEGNIQESLELFQTCAVLSPQSADNLKQVARSLFLLGKHKAAIEVYNEAAKLNQKDWEISHNLGVCYIYLKQFNKAQDQLHNALNLNRHDLTYIMLGKIHLLEGDLDKAIEVYKKAVEFSPENTELLTTLGLLYLQLGIYQKAFEHLGNALTYDPTNYKAILAAGSMMQTHGDFDVALTKYRVVACAVPESPPLWNNIGMCFFGKKKYVAAISCLKRANYLAPFDWKILYNLGLVHLTMQQYASAFHFLSAAINFQPKMGELYMLLAVALTNLEDIENAKRAYAEAVHLDKCNPLVNLKYAVLLYNQGEKKNALAQYQEMEKKVSLLKDNSSLEFDSEMVEMAQKLGAALQVGEALVWTKPVKDPKSKHQTTSTSKPASFQQPLGSNQALGQAMSSAAAYRTLPSGAGGTSQFTKPPSLPLEPEPAVESSPTETSEQIREK [N377K]	with no effect
